Measurements taken from paper PMC5001605 (Nucleic Acids Research, 2016).

B1: Methanococcus jannaschii Kae1 (mjKae1), amino acids 1-328 (domain or fragment)
chain: MICLGLEGTAEKTGVGIVTSDGEVLFNKTIMYKPPKQGINPREAADHHAETFPKLIKEAFEVVDKNEIDLIAFSQGPGLGPSLRVTATVARTLSLTLKKPIIGVNHCIAHIEIGKLTTEAEDPLTLYVSGGNTQVIAYVSKKYRVFGETLDIAVGNCLDQFARYVNLPHPGGPYIEELARKGKKLVDLPYTVKGMDIAFSGLLTAAMRAYDAGERLEDICYSLQEYAFSMLTEITERALAHTNKGEVMLVGGVAANNRLREMLKAMCEGQNVDFYVPPKEFCGDNGAMIAWLGLLMHKNGRWMSLDETKIIPNYRTDMVEVNWIKEIK
B2: Pyrococcus furiosus Pcc1 (pfuPcc1), full-length (natural protein)
chain: MKAKRVQAKIEIEFPSEDVAKVVYEAVLYEHLSVPYRRSEIDFKLEGKKIILDIKATDSSALRGTVNSYLRWIKAAIDVIEV
B3: Pyrococcus furiosus Kae1 (pfuKae1) (natural protein)
chain: MIALGIEGTAHTLGIGIVTENKVLANVFDTLKTEKGGIHPKEAAEHHAKLLKPLLRKALEEAGVSMEDIDVIAFSQGPGLGPALRVVATAARALAIKYNKPIVGVNHCIAHVEITKMFGVKDPVGLYVSGGNTQVLALEGGRYRVFGETLDIGIGNALDVFARELGLGFPGGPKIEKLALKGEKYIELPYAVKGMDLSFSGLLTEAIRKYKSGKYRVEDLAYSFQETAFAALVEVTERALAHTEKEEVVLVGGVAANNRLREMLRIMAEDRGVKFFVPPYDLCRDNGAMIAYTGLRMYKAGIKFKLEETIVKQKFRTDEVEVVW

Tests used:
[1] = target: B2; experiment: SEC-MALS
[2] = target: B2; experiment: SEC-MALS; remark: listed apart in the source
[3] = target: B2; experiment: AUC
[4] = target: B1; experiment: SEC-MALS

B1
stoichiometry N [1]: 1 Kae1 per Pcc1 (2:2)
stoichiometry N [2]: 0.5 Kae1 per Pcc1 (1:2)
stoichiometry N [3]: ~1 Kae1 per Pcc1 (2:2)

B2
binding result [4]: binds

B3
stoichiometry N [1]: 1 Kae1 per Pcc1 (2:2)
